Entries after “also recorded” stand apart in the source; their conditions may differ.
How the values were obtained:
[1] = test system: Ramos Burkitt's lymphoma cells; assay: Combination therapy with CHOP or prednisone, subcutaneous Ramos Burkitt's lymphoma in SCID mice; format: in vivo, C.B.-17 SCID mice
Method: To model localized lymphoma, 5×10^6 Ramos Burkitt's lymphoma cells were implanted subcutaneously into the right flank of C.B.-17 SCID mice (Harlan, Indianapolis, Ind.). Therapy was initiated when the mean tumor size in each group of five animals was 100 mm^3. CHOP was used for a single course, alone or in combination with humanized CD40 antibody (hu sgn-0; SGN-40), using the following dose schedule: cyclophosphamide at 30 mg/kg, i.v. qld x 1; doxorubicin at 2.475 mg/kg, i.v. qld x 1; vincristine at 0.375 mg/kg, i.v. qld x 1; and prednisone at 0.15 mg/kg, p.o. q1d x 5. The CD40 antibody was administered i.p. at 4 mg/kg q4d x 4 when used alone or in combination with prednisone or CHOP. Tumor size was determined using the formula (L×W^2)/2.
To compare the effect of SGN-40 treatment alone or in combination with CHOP or prednisone, SCID mice were subcutaneously implanted with Ramos cells, and dosed with SGN-40 alone or in combination with CHOP as described above. In addition, prednisone steroid was administered alone (0.15 mg/kg, qld x 5 po) or in combination with SGN-40 (4.0 mg/kg, q4d x 4 ip).

IM-9 cells = assay: IM-9 disseminated xenograft model, survival; format: in vivo, SCID mice; conditions: data not shown
Method: Briefly IM-9 cells (1×10^6 per mouse) were introduced intravenously into SCID mice in a disseminated xenograft model. Animals were treated 3 days post tumor cell injection with either SGN-40(4.0 mg/kg, q2d x9, ip) or prednisone (0.15 mg/kg, qld x5, po) alone, or in combination. Survival data was plotted using a Kaplan-Meier curve (data not shown).

Ramos tumor cells [2] = assay: SCID mouse lymphoma xenograft model, intravenous Ramos cells, survival; format: in vivo; conditions: 4 mg/kg/dose i.p. two times per week, five doses, 10 mice/group
Method: The efficacy of the humanized CD40 antibody on survival of tumor-bearing mice was assayed in a SCID mouse lymphoma xenograft model. SCID mice (10/group) were inoculated intravenously with one million Ramos tumor cells three days prior to antibody treatment. Mice were treated with murine or humanized CD40 antibody, or an Ig control, administered intraperitoneally two times per week (4 mg/kg/dose) for a total of five doses. The mouse cages were examined daily for mortality.

[3] = biological target: CD40 immobilized on microassay plates (UniProt P25942 21-193, limits assumed); assay: serially diluted antibody on CD40 immobilized on microassay plates
Method: (§1) Antibodies constructed using these variant light and heavy chain variable domains were analyzed for binding activity. Each antibody was diluted to equivalent concentrations, and then serially diluted. The diluted antibodies were assayed for binding to CD40 immobilized on microassay plates.

Ramos tumor cells [4] = assay: SCID mouse lymphoma xenograft model, subcutaneous Ramos tumor growth; format: in vivo, SCID mice; conditions: 4 mg/kg/dose i.p. 3 times per week, start 13 days after implant, 14-day study period
Method: The anti-tumor activity of the humanized CD40 antibody was assayed in a SCID mouse lymphoma xenograft model. Five million Ramos tumor cells were injected subcutaneously into SCID mice (10/group) thirteen days prior to starting drug treatment. Murine CD40 antibody or the humanized S2C6 was given intra-peritoneally 3 times per week (4 mg/kg/dose) with 8 or 5 doses administered. Mice were examined for tumor growth, and tumor volume was measured weekly during the 14-day study period. The results in FIG. 4 show a nearly 9-fold increase in the growth of tumors in control mice, whereas over the same time period, tumor growth in mice treated with either murine CD40 antibody or humanized S2C6 was negligible.

Ramos cells [5] = assay: Bid upregulation and PARP/caspase-3 cleavage in Ramos cells, western blot; format: cell-based
Method: In a further study, Ramos cells (2% FBS) were treated with cross-linked humanized CD40 antibody or control hIgG over a 72 hr time course ([…]). Normalized protein extracts were analyzed by western blotting analysis for the pro-apoptotic Bcl-2 family member Bid. […] Referring to FIG. 3B, degradation of the caspase-3/7 substrate poly(ADP-ribose) polymerase (cleaved-PARP) was monitored over time by western blotting with an antibody recognizing PARP cleaved at Asp214. Consistent with the apoptosis-inducing activity of the humanized CD40 antibody, cleavage of caspase-3 and its downstream substrate poly (ADP-ribose) polymerase was detected in NHL cell lines. Antibody-mediated signaling was qualitatively similar to that mediated by trimeric recombinant humanized CD40 ligand (rhCD40L) (data not shown). However, the overall magnitude of signaling was lower with the humanized CD40 antibody compared to rhCD40L, consistent with the partial agonistic properties of SGN-40.

Ramos cells [6] = assay: In vitro drug combinations with SGN-40, 3H-thymidine proliferation, Combination Index; format: cell-based
Method: Cells were treated for 72 hours, then labeled with ^3H-thymidine for 4 hours to measure proliferation rates. Dose response curves of drugs alone and in combination with the humanized CD40 antibody were reduced in Excel, and Combination Indices (CI) determined using the Calcusyn analysis package (Biosoft). […] CI values equal to 1.0 indicate an additive integration. For these studies, n=3 unless otherwise indicated.

[7] = Pharmacokinetics of SGN-40 in patients with multiple myeloma; format: in vivo, human; conditions: for AUC0-50: Days 0 to 50, 1 compartment model fit; for T ½: after the last infusion, 1 compartment model fit; for Day 36 Cmin: trough 7 days after last dose; for Day 29 Cmax: serum, after last dose, mean ± SD
Method: The humanized CD40 antibody, SGN-40, was administered twice during the first week and once a week […] for the next 4 weeks to patients with multiple myeloma. […] The peak serum concentration (Cmax) of SGN-40 observed following the last dose on Day 29 and the subsequent trough levels 7 days later on Day 36 are shown for each cohort in Table 6. […] (n/a means not applicable.) […] Data are presented as the mean±standard deviation (N>3) with the exception of Cohort I Day 36 Cmin (N=2), and Cohort II, T1/2 and AUC0-50 (N-1). The patients maintained a plasma SGN-40 concentration of at least about 10 micrograms/ml.

[8] = Phase I escalated dosing study in multiple myeloma patients, adverse events; format: in vivo, human
Method: An open-label, multi-dose, single arm, Phase I protocol initiated at five clinical sites. Initially, enrolled patients, diagnosed with multiple myeloma, received weekly intravenous infusions of a humanized CD40 antibody (hu sgn-0) with a cohort-specific dose level of 0.5, 1, 2 and 4 mg/kg/wk. […] Cohort specific doses of 3, 4, 6 and 8 mg/kg/week were used. The patient eligibility criteria included: patients must have failed at least two prior systemic therapies; at least four weeks since chemotherapy; patients who experience a minimal response (MR) or greater are eligible for a second cycle of therapy.
Patients were monitored for adverse events. […] The drug-loading period reduced the first-dose cytokine release syndrome.

Ramos cells [9] = assay: In vitro signaling in Ramos cells, western blot; format: cell-based; conditions: 2% serum, antibody cross-linked with anti-human IgG, 15 min
Method: Humanized anti-CD40 antibody (Hu sgn-0; also referred to as SGN-40) binding to CD40^+ NHL cells activates signaling through the ERK1/2 MAP Kinase, p38 MAP Kinase, and NFkB pathways. Ramos cells (cultured in 2% serum) were stimulated with the humanized CD40 antibody cross-linked (XL) with anti-human IgG for 15 min. Activation of signaling was detected by western blot analysis with antibodies recognizing phosphorylation of ERK1/2 (Thr202/Tyr204), p38 (ThrlSO/Tyr182), and AKT (Ser473). NFkB activation was detected by measuring the degradation of IkB-a protein.

CD40 and CD40L = CD40 and CD40L (Homo sapiens, UniProt P25942); conditions: literature; cited from earlier work
human peripheral B cells = conditions: Paulie et al., 1989; cited from earlier work
[10] = U.S. Pat. No. 6,838,261; cited from earlier work
CD40 = CD40 (Homo sapiens, UniProt P25942); assay: Binding of variant antibodies to CD40 immobilized on microassay plates; parameters: Binding Data 1 / Binding Data 2 / Binding Data 3: unit not given here
Method: as §1, with “plates. Affinity binding data for the variant antibodies are shown below in Table 3.” for “plates.”

Chain of CD40 (P25942 21-277): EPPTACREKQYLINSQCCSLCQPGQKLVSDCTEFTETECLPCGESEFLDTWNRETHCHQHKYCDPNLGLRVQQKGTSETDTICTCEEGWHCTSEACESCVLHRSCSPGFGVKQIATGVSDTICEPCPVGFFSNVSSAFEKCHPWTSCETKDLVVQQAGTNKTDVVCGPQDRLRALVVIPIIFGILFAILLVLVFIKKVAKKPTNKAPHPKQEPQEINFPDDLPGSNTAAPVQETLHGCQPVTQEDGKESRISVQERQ
Chain of CD40 immobilized on microassay plates (P25942 21-193 limits assumed): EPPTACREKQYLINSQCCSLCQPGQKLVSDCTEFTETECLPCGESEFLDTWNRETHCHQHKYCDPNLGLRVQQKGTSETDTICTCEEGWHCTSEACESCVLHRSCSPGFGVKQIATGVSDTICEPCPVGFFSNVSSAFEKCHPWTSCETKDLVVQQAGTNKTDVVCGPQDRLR
Chain of CD40 and CD40L (P25942 21-277): as the sequence (P25942 21-277) above

## C[C@]12C=CC(=O)C=C1CC[C@@H]1[C@@H]2C(=O)C[C@@]2(C)[C@H]1CC[C@]2(O)C(=O)CO [prednisone]
[1]; CHOP single course, prednisone 0.15 mg/kg p.o. q1d x 5
  effect on tumor growth, administered alone: little effect
[1]; SGN-40 4 mg/kg i.p. q4d x 4 plus CHOP or prednisone
  efficacy in combination with humanized CD40 antibody (SGN-40): greater efficacy

B1: hu sgn-0 (antibody, V domains shown)
VH: EVQLVESGGGLVQPGGSLRLSCAASGYSFTGYYIHWVRQAPGKGLEWVARVIPNNGGTSYNQKFKGRFTISRDNSKNTLYLQMNSLRAEDTAVYYCAREGIYWWGQGTLVTVS
VL: DIQMTQSPSSLSASVGDRVTITCRSSQSLVHSNGNTFLHWYQQKPGKAPKLLIYTVSNRFSGVPSRFSGSGSGTDFTLTISSLQPEDFATYYCSQTTHVPWTFGQGTKVEIKR
notes: also called SGN-40; Template
IM-9 cells; SGN-40 4.0 mg/kg q2d x9 ip, 3 days post tumor cell injection
  survival: similarly effective in promoting survival
IM-9 cells; prednisone 0.15 mg/kg qld x5 po
  efficacy with or without prednisone: essentially the same in the presence or absence of prednisone
Ramos tumor cells [2]
  mice alive 90 days after tumor implant: all ten
[3]
  Binding Data 1: 75.3
  Binding Data 2: 75.3
Ramos tumor cells [4]
  tumor growth: negligible
Ramos cells [5]; NHL cell lines, western blot
  cleavage of caspase-3 and poly (ADP-ribose) polymerase: detected
Ramos cells [5]; Ramos cells 2% FBS, cross-linked antibody, 72 hr time course, 1.0 mg/ml mAb
  Bid protein: upregulated Bid
Ramos cells [5]; data not shown
  overall magnitude of signaling compared to rhCD40L: lower
Ramos cells [6]
  effect on activity of chemotherapeutic agents: enhances the activity of several chemotherapeutic agents
[7]; Cohort I (1,1,2,3,3,3)
  AUC0-50: 653.93 ± 154.65 µg·days/mL
  T ½: 64.1 ± 25.9 h
[7]; Cohort I (1,1,2,3,3,3), N=2
  Day 36 Cmin: 9.94 µg/mL
[7]; Cohort I (Day 1/4/8/15/22/29: 1,1,2,3,3,3)
  Day 29 Cmax: 45.40 ± 14.31 µg/mL
[7]; Cohort II (1,1,2,4,4,4)
  AUC0-50: 2086.02 µg·days/mL
  T ½: 111 h
  Day 36 Cmin: 69.93 ± 14.08 µg/mL
[7]; Cohort II (Day 1/4/8/15/22/29: 1,1,2,4,4,4)
  Day 29 Cmax: 143.00 ± 27.78 µg/mL
[7]; Cohort III (1,1,2,4,6,6)
  AUC0-50: 1988.88 ± 439.74 µg·days/mL
  T ½: 92.4 ± 32.9 h
  Day 36 Cmin: 41.57 ± 19.22 µg/mL
[7]; Cohort III (Day 1/4/8/15/22/29: 1,1,2,4,6,6)
  Day 29 Cmax: 149.25 ± 29.34 µg/mL
[7]; Cohort IV (1,1,2,4,6,8)
  AUC0-50: 3441.73 ± 1382.79 µg·days/mL
  T ½: 129 ± 44.2 h
  Day 36 Cmin: 112.84 ± 50.40 µg/mL
[7]; Cohort IV (Day 1/4/8/15/22/29: 1,1,2,4,6,8)
  Day 29 Cmax: 244.25 ± 96.00 µg/mL
[7]; multiple myeloma patients
  plasma SGN-40 concentration maintained: at least 10 micrograms/ml
[8]; drug-loading period, Table 5 schema
  symptoms of first dose-associated cytokine release after amended protocol (intra-patient dose escalation): markedly reduced
[8]; low doses tested thus far, multiple myeloma patients
  antitumor activity: preliminary evidence for antitumor activity
[8]; multiple myeloma patients
  TNF-alpha levels in the plasma: elevated following the first infusion only
  cytokine release: appeared to trigger cytokine release
[8]; weekly i.v. infusion, 4 mg/kg level, multiple myeloma patients
  adverse event with the first dose: Grade 3 cytokine release syndrome
Ramos cells [9]
  AKT signaling: modestly elevated

B2: SGN-14: parent murine monoclonal CD40 antibody (donor), heavy SEQ ID NO: 1, light SEQ ID NO: 12; ATCC PTA-110 (antibody, V domains shown)
VH: EVQLQQSGPDLVKPGASVKISCKASGYSFTGYYIHWVKQSHGKSLEWIGRVIPNNGGTSYNQKFKGKAILTVDKSSSTAYMELRSLTSEDSAVYYCAREGIYWWGHGTTLTVS
VL: DVVVTQTPLSLPVSLGAQASISCRSSQSLVHSNGNTFLHWYLQKPGQSPKLLIYTVSNRFSGVPDRFSGSGSGTDFTLKISRVEAEDLGVYFCSQTTHVPWTFGGGTKLEIQR
modifications: MusMusculus
Ramos tumor cells [2]
  mice alive 90 days after tumor implant: eight of the ten
CD40 and CD40L
  effect on the interaction between CD40 and CD40L: can increase the interaction between CD40 and CD40L
Human peripheral B cells
  activity on human peripheral B cells (primary B cell proliferation): stimulate primary B cell proliferation in a dose dependent manner
Ramos tumor cells [4]
  tumor growth: negligible
[10]
  anti-neoplastic activity in vivo: anti-neoplastic activity in vivo
CD40; affinity binding data, serially diluted antibody on immobilized CD40
  Binding Data 3: 1.16
CD40; in words
  binding activity compared with the parent murine antibody: approaching that of the parent murine antibody; also recorded: more closely approaching that of the parent murine antibody
